Assays:
[1] = at best, in about 40% of patients (Dworkin, 2002); cited from earlier work
[2] = test system: cultured rat dorsal root ganglion (DRG) neurons; assay: Dorsal root ganglion in vitro current clamp electrophysiology; type: cell-based; settings: 25 μg/ml; for number of evoked action potentials: compared with vehicle or control antibody, administration at time=2 minutes
Procedure: Dorsal Root Ganglia were isolated from 1-2 wild-type rat pups, aged between postnatal day 1 and 3. Ganglia were washed in PBS after dissection and immediately placed into a DMEM (Lonza, #BE12-604F) solution containing 2 mg/ml collagenase (Sigma-Aldrich, #C2674) and incubated at 37° C. for approximately 45 minutes for enzymatic digestion. Collagenase solution was removed and replaced with DMEM supplemented with 10% Fetal Bovine Serum (Lonza, #DE14802F), 0.5 mM L-Glutamine (Lonza, #BE17-605E), 1% Penicillin/Streptomycin (Lonza, #BE17-603E) and 20 ng/ml nerve growth factor (NGF, Invitrogen). Ganglia were then mechanically triturated, centrifuged at 1000 g for 5 minutes, and resuspended in the same culture medium. Dissociated cells were counted and diluted to a suspension of 100,000-120,000 cells/ml on glass coverslips precoated with 50 μg/ml poly-D-lysine (Sigma) and 30 μg/ml laminin (Invitrogen) and incubated at 37° C., 5% CO2 until ready for use.
Dissociated DRG were taken for use no more than two days in vitro (DIV) following preparation. Cells were visualized on an Olympus BX50WI upright microscope with an Ikegami ICD-42B CCD camera. […] All recordings were acquired using pClamp 10 software (Molecular Devices) and subsequently analyzed in Clampfit 10 (Molecular Devices). […] The liquid junction potential was calculated to be 14.2 mV, all reported voltages have been corrected to compensate.
After formation of a tight seal (>1 GΩ) by release of positive pressure and manual suction in voltage clamp mode, capacitative currents were compensated and the command voltage was set to −70 mV. […] Whole cell parameters were recorded after dialysis. […] The amplifier was switched to current clamp mode and the resting membrane potential was recorded. […]
Cells were subsequently treated either with control or antibody solutions by fast bath perfusion directly on to the recorded cell for 90 seconds to sufficiently fill the recording chamber, at which point both perfusion and aspiration were halted. […]

[3] = molecular target: T1, Human domain B loop E1 peptide B11 (Nav 1.7) (Homo sapiens, UniProt Q15858); assay: Peptide binding ELISA, human B11 peptide
T1 construct: host or cells: synthetic peptide
Procedure: (§1) Nunc 96 well plates were coated overnight at 4° C. in 5 ug/ml Streptavidin (Jackson 016-000-114) 100 ul/well in carbonate coating buffer. Plates were washed four times in PBS/tween and 200 ul/well of block (1% BSA in PBS) was added for 1 hour at RT. Plates were washed four times in PBS/tween and 100 ul/well of biotinylated peptide at 5 ug/ml was added for 1 hour at RT. Plates were washed four times in PBS/tween and 100 ul/well of antibody added (starting at 10 ug/ml diluting in block in half logs down the plate) for 1 hour at RT. Plates were washed four times in PBS/tween and […] goat anti rabbit Fc HRP (Jackson 111-036-046) added for 1 hour at RT. Plates were washed four times in PBS/tween and 100 ul/well TMB (3,3′,5,5′ Tetramethylbenzidine) solution added. 50 ul/well of NaF was added to stop reaction and absorbance read at 630 nm.

[4] = molecular target: T2, Mouse domain B loop E1 peptide B11 (Nav 1.7) (Mus musculus, UniProt Q62205); assay: Peptide binding ELISA, mouse B11 peptide
T2 construct: host or cells: synthetic peptide
Procedure: as §1

[5] = molecular target: T3, Nav 1.7 peptide B11.7 (Homo sapiens, UniProt Q15858); assay: Peptide binding ELISA, cyclic Nav 1.7 peptide B11.7; settings: biotinylated cyclic peptide on streptavidin plate
T3 construct: host or cells: synthetic peptide captured on streptavidin plates
Procedure: as §1

[6] = molecular target: T4, human Nav1.7 channel (Homo sapiens, UniProt Q15858); assay: PatchXpress h Nav1.7 assay (automated Patch Clamp, HEK cells); type: cell-based; settings: for dose dependence of inhibition of human Nav1.7 currents: recombinant human Nav1.7 in HEK cells, repeated voltage step protocol, end point
T4 construct: host or cells: HEK293
Procedure: Extracellular solution contained (in mM): 130 NaCl, 4 KCl, 1.5 CaCl2, 1 MgCl2, 30 glucose, 10 HEPES (pH 7.4 with Tris-Base, and 300 to 305 mOsmolar). Intracellular solution contained (in mM): 5 NaCl, 115 CsF, 20 CsCl, […], 10 EGTA free acid (pH 7.2 with CsOH, and 290 to 295 mOsmolar) and was either made fresh or kept frozen. Extracellular and intracellular solutions were filtered prior to use. Antibodies were directly diluted in extracellular solution and were freshly (no more than 15 min) prepared before transfer to a 96-well polypropylene compound plate (Sarsted, #83.1835.500). For the experiments using selective peptide, antibodies and peptides, at equal concentrations, were preincubated at least 30-min at 4° C. prior Patch Clamp experiments.
HEK293 cells stably expressing the human Nav1.7 channel (type IX voltage-gated sodium channel alpha subunit) were purchased from Upstate (Upstate, Millipore, cat.#CYL3011). Cells were cultured in T-75 (BD BioCoat™ Collagen I Cellware, Becton Dickinson Labware, Bedford, Mass., #356485) flasks coated with collagen type I using standard culture medium DMEM-F12 with-Glutamine (Invitrogen, #11320) containing 10% FBS (Lonza, #DE14-802F), 1% penicillin+streptomycin (Lonza, DE17-603E), 1% non essential amino acids (Lonza, BE13-114E) and 400 μg/ml G418 (GIBCO, #10131-027). Cells were plated at a density of 15,000 cells/cm2 or 8,000 cells/cm2 density for 2 or 3 days respectively before being used on PatchXpress® 7000A (Axon instrument, new part of MDS Analytical Technologies). Cells confluence never exceeded 90%. The day of the experiment, cells were harvested using Accumax (Sigma, A7089). Briefly, cells were washed twice in PBS (Lonza, #BE12-516F) without calcium and magnesium, and a 1:4 dilution of Accumax solution was added and incubated for 1.5 to 2-min at 37° C. DMEM-F12 with 15 mMHEPES and L-glutamine (Lonza, #BE12-719F) containing 10% FBS (recovery media) was added to quench Accumax digestion. The cells were subsequently centrifuged at 1,000 rpm for 5-min in 50 ml falcon tube and pellets are resuspended in 10 ml of recovery media. Cells are counted (CoulterZ2) and suspended at ˜0.1 million cells/ml and transferred to a 15 ml screw-cap tube for minimum 90 minutes at room temperature. Cells were then centrifuged for 60-s at 1,000 rpm. The pellet was gently resuspended in 1,000 μl extracellular solution and centrifuged a second time for 30-s at 1,000 rpm. Pellet was resuspended in 150 μL extracellular solution and immediately tested on the PatchXpress®. […]
After 10-s, the pressure was switched from +4 to −30 mmHg to attract suspended cells to each of the 16 holes (electrodes). […] The cell was allowed to dialyze for 5 min, during which the access resistance was monitored. […]

[7] = molecular target: T5, rat Nav1.7 channels (Rattus norvegicus, UniProt O08562); assay: Automated Patch Clamp analysis of recombinant rat Nav1.7 channels expressed in HEK cells; type: cell-based; settings: recombinant rat Nav1.7 in HEK cells
T5 construct: expressed in transfected cells; host or cells: HEK cells
Excerpt: Automated Patch Clamp analysis of recombinant rat Nav1.7 channels expressed in HEK cells. […] Data points represent the normalized peak current amplitudes after application of a repeated voltage step protocol (end point) in the presence of antibody.

T4 sequence (Q15858 whole entry): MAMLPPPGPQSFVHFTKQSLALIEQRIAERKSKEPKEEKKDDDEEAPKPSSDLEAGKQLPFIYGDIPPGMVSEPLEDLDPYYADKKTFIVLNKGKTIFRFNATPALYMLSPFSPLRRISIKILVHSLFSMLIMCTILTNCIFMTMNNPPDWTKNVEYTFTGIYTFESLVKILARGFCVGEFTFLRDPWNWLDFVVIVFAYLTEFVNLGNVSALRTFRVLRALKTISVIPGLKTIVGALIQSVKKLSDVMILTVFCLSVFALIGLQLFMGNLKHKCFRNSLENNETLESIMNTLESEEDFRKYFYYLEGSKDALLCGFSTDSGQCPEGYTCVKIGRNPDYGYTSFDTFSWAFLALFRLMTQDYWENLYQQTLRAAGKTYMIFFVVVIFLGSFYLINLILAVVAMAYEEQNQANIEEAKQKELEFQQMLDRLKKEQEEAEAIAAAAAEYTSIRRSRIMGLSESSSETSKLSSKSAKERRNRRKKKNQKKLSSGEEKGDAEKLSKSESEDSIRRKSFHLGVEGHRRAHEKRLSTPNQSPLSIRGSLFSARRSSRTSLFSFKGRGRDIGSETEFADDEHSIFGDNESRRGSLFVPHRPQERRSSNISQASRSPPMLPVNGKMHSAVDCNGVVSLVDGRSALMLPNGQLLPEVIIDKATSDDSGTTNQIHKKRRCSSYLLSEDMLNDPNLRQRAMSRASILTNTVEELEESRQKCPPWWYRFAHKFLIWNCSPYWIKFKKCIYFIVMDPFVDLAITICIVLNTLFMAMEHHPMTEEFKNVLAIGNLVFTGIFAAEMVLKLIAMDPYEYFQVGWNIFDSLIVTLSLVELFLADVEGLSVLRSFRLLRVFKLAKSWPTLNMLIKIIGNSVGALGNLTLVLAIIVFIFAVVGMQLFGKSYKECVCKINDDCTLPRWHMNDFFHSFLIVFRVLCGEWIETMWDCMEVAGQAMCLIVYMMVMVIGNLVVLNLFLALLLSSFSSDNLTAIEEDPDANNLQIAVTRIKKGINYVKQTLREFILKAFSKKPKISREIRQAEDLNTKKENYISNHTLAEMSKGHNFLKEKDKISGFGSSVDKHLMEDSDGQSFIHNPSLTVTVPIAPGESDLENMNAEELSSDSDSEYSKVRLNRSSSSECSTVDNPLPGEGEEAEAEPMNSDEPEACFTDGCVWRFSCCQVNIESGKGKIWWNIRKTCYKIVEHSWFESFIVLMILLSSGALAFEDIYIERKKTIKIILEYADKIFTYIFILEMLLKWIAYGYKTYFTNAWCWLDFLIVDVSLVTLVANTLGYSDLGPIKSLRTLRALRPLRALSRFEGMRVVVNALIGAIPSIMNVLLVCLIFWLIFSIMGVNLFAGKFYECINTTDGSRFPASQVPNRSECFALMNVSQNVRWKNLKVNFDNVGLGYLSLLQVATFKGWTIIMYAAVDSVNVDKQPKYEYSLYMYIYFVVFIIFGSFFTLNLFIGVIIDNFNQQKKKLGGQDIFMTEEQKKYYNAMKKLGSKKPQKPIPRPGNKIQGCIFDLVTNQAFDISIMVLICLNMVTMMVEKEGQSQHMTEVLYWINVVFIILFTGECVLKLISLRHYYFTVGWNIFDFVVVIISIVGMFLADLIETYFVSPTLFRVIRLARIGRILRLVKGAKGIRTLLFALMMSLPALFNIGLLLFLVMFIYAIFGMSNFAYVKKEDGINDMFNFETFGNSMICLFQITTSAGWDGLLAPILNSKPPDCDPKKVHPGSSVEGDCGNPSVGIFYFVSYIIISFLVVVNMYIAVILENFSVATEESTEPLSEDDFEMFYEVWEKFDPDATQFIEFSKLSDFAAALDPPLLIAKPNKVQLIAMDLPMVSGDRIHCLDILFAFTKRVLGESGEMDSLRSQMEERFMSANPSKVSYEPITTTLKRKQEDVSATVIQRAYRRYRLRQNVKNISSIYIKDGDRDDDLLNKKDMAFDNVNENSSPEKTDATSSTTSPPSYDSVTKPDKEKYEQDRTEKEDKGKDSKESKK
T5 sequence (O08562 whole entry): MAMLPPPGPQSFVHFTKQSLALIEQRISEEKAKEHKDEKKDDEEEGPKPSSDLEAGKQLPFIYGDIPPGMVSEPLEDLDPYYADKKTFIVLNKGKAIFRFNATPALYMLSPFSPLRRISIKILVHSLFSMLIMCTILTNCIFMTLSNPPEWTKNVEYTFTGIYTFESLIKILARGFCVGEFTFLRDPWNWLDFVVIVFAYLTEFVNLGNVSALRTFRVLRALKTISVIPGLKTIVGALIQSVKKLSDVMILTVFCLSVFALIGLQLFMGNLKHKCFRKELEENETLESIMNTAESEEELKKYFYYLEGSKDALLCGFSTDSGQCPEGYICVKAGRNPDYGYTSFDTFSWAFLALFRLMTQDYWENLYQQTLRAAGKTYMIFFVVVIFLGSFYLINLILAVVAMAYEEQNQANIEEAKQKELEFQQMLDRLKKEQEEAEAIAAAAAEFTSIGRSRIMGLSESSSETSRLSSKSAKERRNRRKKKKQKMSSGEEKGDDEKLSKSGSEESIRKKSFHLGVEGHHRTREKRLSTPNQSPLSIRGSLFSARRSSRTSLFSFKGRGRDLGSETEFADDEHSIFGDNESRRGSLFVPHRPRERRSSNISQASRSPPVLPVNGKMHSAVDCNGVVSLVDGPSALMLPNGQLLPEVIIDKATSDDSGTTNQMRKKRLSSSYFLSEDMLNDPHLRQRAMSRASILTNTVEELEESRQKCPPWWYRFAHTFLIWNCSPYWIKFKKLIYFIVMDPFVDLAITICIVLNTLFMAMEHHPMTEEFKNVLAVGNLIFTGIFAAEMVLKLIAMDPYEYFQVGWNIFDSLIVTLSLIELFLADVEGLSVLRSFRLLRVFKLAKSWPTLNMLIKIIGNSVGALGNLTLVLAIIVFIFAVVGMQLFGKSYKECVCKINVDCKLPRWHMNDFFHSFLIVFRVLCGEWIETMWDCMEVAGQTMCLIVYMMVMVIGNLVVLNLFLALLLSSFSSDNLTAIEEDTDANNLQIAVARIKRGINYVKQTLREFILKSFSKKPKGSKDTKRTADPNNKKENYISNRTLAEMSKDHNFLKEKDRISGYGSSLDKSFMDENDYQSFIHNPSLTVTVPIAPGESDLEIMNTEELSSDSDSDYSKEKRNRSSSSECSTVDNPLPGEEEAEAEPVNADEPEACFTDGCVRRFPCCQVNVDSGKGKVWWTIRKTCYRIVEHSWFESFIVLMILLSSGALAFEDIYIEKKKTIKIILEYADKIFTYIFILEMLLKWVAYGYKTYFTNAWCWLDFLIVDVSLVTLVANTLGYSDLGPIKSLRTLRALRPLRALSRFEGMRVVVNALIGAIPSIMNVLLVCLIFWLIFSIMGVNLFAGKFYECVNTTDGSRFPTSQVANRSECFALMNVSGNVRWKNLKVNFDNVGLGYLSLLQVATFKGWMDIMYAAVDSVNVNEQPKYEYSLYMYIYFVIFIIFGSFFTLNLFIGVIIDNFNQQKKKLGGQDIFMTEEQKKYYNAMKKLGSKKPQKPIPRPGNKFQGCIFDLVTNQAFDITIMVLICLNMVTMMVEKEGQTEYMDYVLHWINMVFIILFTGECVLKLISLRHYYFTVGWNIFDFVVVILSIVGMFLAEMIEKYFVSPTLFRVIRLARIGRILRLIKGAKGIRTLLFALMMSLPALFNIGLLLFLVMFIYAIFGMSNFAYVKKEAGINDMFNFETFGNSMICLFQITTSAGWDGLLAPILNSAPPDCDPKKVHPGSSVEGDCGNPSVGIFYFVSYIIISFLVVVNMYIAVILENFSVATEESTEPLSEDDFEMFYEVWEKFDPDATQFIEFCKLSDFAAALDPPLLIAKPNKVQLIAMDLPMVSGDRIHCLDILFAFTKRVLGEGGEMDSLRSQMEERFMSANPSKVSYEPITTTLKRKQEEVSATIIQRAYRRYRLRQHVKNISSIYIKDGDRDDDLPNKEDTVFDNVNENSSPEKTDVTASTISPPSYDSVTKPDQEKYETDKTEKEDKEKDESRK

NCC1(CC(=O)O)CCCCC1 [gabapentin]
pain reduction [1]: ≤ 50%

B1: CA167_00983: rabbit anti-Nav1.7 monoclonal antibody, B11-specific; VH SEQ ID NO:148, VL SEQ ID NO:147 (antibody, V domains shown)
VH: QSVEESGGRLVTPGTPLTLTCTVSGFSLSNYAMSWVRQAPGKGLEWIGIIGKSGSTAYASWAKGRFTISRTSTTVDLEITSPTTEDTATYFCVRFVLLWGPGTLVTVS
VL: AQVLTQTASPVSAAVGGTVTINCQSSQSVYKNNDLAWYQQKPGQPPKLLIYYASTLASGVSSRFKGSGSGTEFTLTISDAQCDDAATYYCLGSYDCSSADCNAFGGGTKVVVK
modifications: derived from rabbit
number of evoked action potentials [2]: significantly reduced
ELISA binding to Human domain B loop E1 peptide B11 [3]: binding
ELISA binding to Mouse domain B loop E1 peptide B11 [4]: binding
ELISA binding to Nav 1.7 peptide (B11.7) [5]: specific binding
human Nav1.7 current when stimulated only at the end of the protocol ([6]; 25 μg/ml, stimulation only at end, after incubation of antibody): does not produce an inhibition of the Nav1.7 current
human Nav1.7 currents under repeated activation ([6]; 25 μg/ml, voltage step protocol at 0.1 Hz for ~20 minutes): reduced in the presence of the antibody (25 μg/ml) but only when repeated activation of the channel at 0.1 Hz is maintained
dose dependence of inhibition of human Nav1.7 currents [6]: dose-dependent inhibition
dose dependence of inhibition of rat Nav1.7 currents ([7]; repeated voltage step protocol, end point): dose-dependent inhibition

B2: CA167_01080: rabbit anti-Nav1.7 monoclonal antibody, B11-specific; VH SEQ ID NO:176, VL SEQ ID NO:175 (antibody, V domains shown)
VH: QSLEESGGRLVTPETPLTLTCTASGIDLSKWPMTWVRQAPGKGLEWIGIIGRSGSTNYASWAKGRFTISKTSTTVDLKMTSPTTEDTATYFCARGGSYYDLWGQGTLVTVS
VL: AQVLTQTASPVSAAVGNTVTITCQSSQSVWKNNDLSWYQQKLGQPPKLLIYYASTLASGVSSRFKASGSGTQFTLTISDVQCDDAGTYYCVGSYDCSSADCNAFGGGTKVVVK
modifications: derived from rabbit
electrically induced spike frequency of DRG neurons ([2]; normalized to frequency at time 0): reduces
ELISA binding to Human domain B loop E1 peptide B11 [3]: binding
ELISA binding to Mouse domain B loop E1 peptide B11 [4]: binding
ELISA binding to Nav 1.7 peptide (B11.7) [5]: specific binding
dose dependence of inhibition of human Nav1.7 currents [6]: dose-dependent inhibition
inhibition of rat Nav1.7 currents ([7]; 25 μg/ml): ~26%

B3: CA167_00932: rabbit anti-Nav1.7 monoclonal antibody, A32-specific; VH SEQ ID NO:140, VL SEQ ID NO:139 (antibody, V domains shown)
VH: QSLEESGGRLVTPGTPLTLTCTVSGFSLSRYWMSWVRQAPGKGLEWIGNIGGGSGSTLYAPWAKGRSTISKTSTTVDLKITSPTTEDTATYFCGRYVKNGGGYRLDLWGPGTLVTVS
VL: AAVLTQTPSSVSAAVGGTVTIKCQSSQSVYNNNEFSWYQQKPGQPPKLLIYDASKLASGVPSRFSGSGSGTQFTLTISGVQCDDVATYYCLGGYNDDTNRWAFGGGTEVVVE
modifications: derived from rabbit
number of evoked action potentials [2]: significantly reduced

Source: patent US8986954B2, “DNA encoding function modifying Nav1.7 antibodies” (UCB Pharma S.A., priority 2009, dated 2015)
